The target in test [1] is human PCPE-1 (procollagen C-proteinase enhancer protein-1), no tag (human) (UniProt Q15113). The test can be described thus: SPR. Background: Surface plasmon resonance follows binding to a sensor surface in real time, without labels.
Test [2] has as its target homotrimeric mini-procollagen II (human). Nature of the test: SDS-PAGE in non-reducing against reducing.
In test [3] the target is mini-procollagen III (human). The test can be described thus: SDS-PAGE in non-reducing against reducing.
Test [4] has as its target α2 chain of mini-procollagen I (human). Nature of the test: co-purification by the tag of one chain, SDS-PAGE of the BMP-1 cleavage products.

Where only a bound is given, the exact number is not on record here.

Sequence of UniProt Q15113 (Q15113 26-449): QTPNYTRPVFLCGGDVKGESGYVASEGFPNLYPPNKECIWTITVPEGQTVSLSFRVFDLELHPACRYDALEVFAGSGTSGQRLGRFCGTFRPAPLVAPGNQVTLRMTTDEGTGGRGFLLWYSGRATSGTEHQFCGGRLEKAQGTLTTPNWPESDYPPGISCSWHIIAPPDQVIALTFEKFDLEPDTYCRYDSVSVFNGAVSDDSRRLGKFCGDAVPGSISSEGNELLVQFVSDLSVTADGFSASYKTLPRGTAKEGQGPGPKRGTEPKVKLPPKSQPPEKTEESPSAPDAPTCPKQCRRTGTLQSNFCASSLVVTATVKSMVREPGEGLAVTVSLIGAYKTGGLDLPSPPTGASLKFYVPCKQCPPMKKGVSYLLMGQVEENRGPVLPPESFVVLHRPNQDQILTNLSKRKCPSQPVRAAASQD

Regarding “heterotrimeric mini-procollagen I (complex)”, in test [1], the KD1 (heterogeneous ligand model) is below 15 nM and the KD2 (heterogeneous ligand model) is below 15 nM.

On to “homotrimeric mini-procollagen II (domain or fragment)”, for which, in test [2], the stoichiometry N (commonly the number of molecules, sites or subunits per partner or assembly) stood at 3. In test [1], the KD1 (heterogeneous ligand model) was below 15 nM and the KD2 (heterogeneous ligand model) was below 15 nM.

“mini-procollagen III (domain or fragment)” registered a stoichiometry N in test [3] of 3. Moreover, in test [1], the KD1 (heterogeneous ligand model) was below 15 nM and the KD2 (heterogeneous ligand model) is below 15 nM.

In test [4], “α1 chain of mini-procollagen I (domain or fragment)” yielded a stoichiometry N (α1 chains for one α2 chain) of 2.

(Values after doi:10.1101/2022.11.10.516045.)
